Measurements reported in patent US20260201008A1, “SECRETIN-DERIVED GLP1R SELECTIVE AGONISTS” (GUBRA A/S, priority 2023, published 2026).
Numbered stars: 1 amine (or outer) side, 2 acyl side, 3 side chain; on linkers, the order of the positions; unused ones are H or OH. Square brackets hold non-standard residues; d marks the D form. Side chains are listed from the residue outwards. Ends that are not written are not given here. * marks the point of attachment. C20 diacid = O=C(O)CCCCCCCCCCCCCCCCCCC(=O)*; γGlu = O=C(O)[C@H](CCC(=O)[*:2])N[*:1]; AEEA = NCCOCCOCC(=O)O; Aib = CC(C)(N)C(=O)O

B1: SEQ ID NO: 106 (peptide)
peptide: H[Aib]EGTFTSD[Aib]SYLLEGAALQRFIQWLV-NH2
modifications: N-terminus assumed
SMILES: CC[C@H](C)[C@H](NC(=O)[C@H](Cc1ccccc1)NC(=O)[C@H](CCCNC(=N)N)NC(=O)[C@H](CCC(N)=O)NC(=O)[C@H](CC(C)C)NC(=O)[C@H](C)NC(=O)[C@H](C)NC(=O)CNC(=O)[C@H](CCC(=O)O)NC(=O)[C@H](CC(C)C)NC(=O)[C@H](CC(C)C)NC(=O)[C@H](Cc1ccc(O)cc1)NC(=O)[C@H](CO)NC(=O)C(C)(C)NC(=O)[C@H](CC(=O)O)NC(=O)[C@H](CO)NC(=O)[C@@H](NC(=O)[C@H](Cc1ccccc1)NC(=O)[C@@H](NC(=O)CNC(=O)[C@H](CCC(=O)O)NC(=O)C(C)(C)NC(=O)[C@@H](N)Cc1c[nH]cn1)[C@@H](C)O)[C@@H](C)O)C(=O)N[C@@H](CCC(N)=O)C(=O)N[C@@H](Cc1c[nH]c2ccccc12)C(=O)N[C@@H](CC(C)C)C(=O)N[C@H](C(N)=O)C(C)C
B2: SEQ ID NO: 99 (peptide)
peptide: H[Aib]EGTFTSDVSELKELAAQQRFLEHLV-NH2
modifications: not fully specified (residue 14)
B3: SEQ ID NO: 90 (peptide)
peptide: H[Aib]EGTFTSDVSVLK([AEEA-AEEA-γGlu-C20 diacid])EEAAQQRFLEHLV-NH2
B4: SEQ ID NO: 92 (peptide)
peptide: H[Aib]EGTFTSDVSVLK([AEEA-AEEA-γGlu-C20 diacid])EFAASQRFLEHLV-NH2
B5: SEQ ID NO: 96 (peptide)
peptide: H[Aib]EGTFTSDVSTLKEEAAAQRFLEHLV-NH2
modifications: not fully specified (residue 14)
B6: SEQ ID NO: 10 (peptide)
peptide: H[Aib]EGTFTSDVSRLK([AEEA-AEEA-γGlu-C20 diacid])ELAA[Aib]QRFLEHLV-NH2
modifications: also: K14 lipid also given as C18DA[γE][OEG][OEG]-
B7: SEQ ID NO: 95 (peptide)
peptide: H[Aib]EGTFTSDVSYLKEEAAEQRFLEHLV-NH2
modifications: not fully specified (residue 14)
B8: SEQ ID NO: 89 (peptide)
peptide: H[Aib]EGTFTSDVSTLK([AEEA-AEEA-γGlu-C20 diacid])EFAAEQRFLEHLV-NH2
B9: SEQ ID NO: 105 (peptide)
peptide: H[Aib]EGTFTSD[Aib]SGLLEGAALQRFIQWLV-NH2
modifications: N-terminus assumed
SMILES: CC[C@H](C)[C@H](NC(=O)[C@H](Cc1ccccc1)NC(=O)[C@H](CCCNC(=N)N)NC(=O)[C@H](CCC(N)=O)NC(=O)[C@H](CC(C)C)NC(=O)[C@H](C)NC(=O)[C@H](C)NC(=O)CNC(=O)[C@H](CCC(=O)O)NC(=O)[C@H](CC(C)C)NC(=O)[C@H](CC(C)C)NC(=O)CNC(=O)[C@H](CO)NC(=O)C(C)(C)NC(=O)[C@H](CC(=O)O)NC(=O)[C@H](CO)NC(=O)[C@@H](NC(=O)[C@H](Cc1ccccc1)NC(=O)[C@@H](NC(=O)CNC(=O)[C@H](CCC(=O)O)NC(=O)C(C)(C)NC(=O)[C@@H](N)Cc1c[nH]cn1)[C@@H](C)O)[C@@H](C)O)C(=O)N[C@@H](CCC(N)=O)C(=O)N[C@@H](Cc1c[nH]c2ccccc12)C(=O)N[C@@H](CC(C)C)C(=O)N[C@H](C(N)=O)C(C)C
B10: SEQ ID NO: 97 (peptide)
peptide: H[Aib]EGTFTSDVSELKEEAA[Aib]QRFLEHLV-NH2
modifications: not fully specified (residue 14)
B11: SEQ ID NO: 104 (peptide)
peptide: H[Aib]EGTFTSD[Aib]SRLLEGAALQRFIQWLV-NH2
modifications: N-terminus assumed
SMILES: CC[C@H](C)[C@H](NC(=O)[C@H](Cc1ccccc1)NC(=O)[C@H](CCCNC(=N)N)NC(=O)[C@H](CCC(N)=O)NC(=O)[C@H](CC(C)C)NC(=O)[C@H](C)NC(=O)[C@H](C)NC(=O)CNC(=O)[C@H](CCC(=O)O)NC(=O)[C@H](CC(C)C)NC(=O)[C@H](CC(C)C)NC(=O)[C@H](CCCNC(=N)N)NC(=O)[C@H](CO)NC(=O)C(C)(C)NC(=O)[C@H](CC(=O)O)NC(=O)[C@H](CO)NC(=O)[C@@H](NC(=O)[C@H](Cc1ccccc1)NC(=O)[C@@H](NC(=O)CNC(=O)[C@H](CCC(=O)O)NC(=O)C(C)(C)NC(=O)[C@@H](N)Cc1c[nH]cn1)[C@@H](C)O)[C@@H](C)O)C(=O)N[C@@H](CCC(N)=O)C(=O)N[C@@H](Cc1c[nH]c2ccccc12)C(=O)N[C@@H](CC(C)C)C(=O)N[C@H](C(N)=O)C(C)C
B12: SEQ ID NO: 91 (peptide)
peptide: H[Aib]EGTFTSDVSFLK([AEEA-AEEA-γGlu-C20 diacid])EFAASQRFLEHLV-NH2
B13: SEQ ID NO: 87 (peptide)
peptide: H[Aib]EGTFTSDVSELK([AEEA-AEEA-γGlu-C20 diacid])EEAASQRFLEHLV-NH2
B14: SEQ ID NO: 101 (peptide)
peptide: H[Aib]EGTFTSDVSVLK([AEEA-AEEA-γGlu-C20 diacid])ETAA[Aib]QRFLEHLV-NH2
modifications: also: K14 lipid also given as C18DA[γE][OEG][OEG]-
B15: SEQ ID NO: 86 (peptide)
peptide: H[Aib]EGTFTSDVSYLK([AEEA-AEEA-γGlu-C20 diacid])ELAAAQRFLEHLV-NH2
B16: SEQ ID NO: 11 (peptide)
peptide: H[Aib]EGTFTSDVSTLK([AEEA-AEEA-γGlu-C20 diacid])ELAAAQRFLEHLV-NH2
modifications: also: K14 lipidated with C20DA[γE][OEG][OEG]- or C18DA[γE][OEG][OEG]-
B17: SEQ ID NO: 100 (peptide)
peptide: H[Aib]EGTFTSDVSTLK([AEEA-AEEA-γGlu-C20 diacid])EFAAQQRFLEHLV-NH2
modifications: also: K14 lipid also given as C18DA[γE][OEG][OEG]-
B18: SEQ ID NO: 102 (peptide)
peptide: H[Aib]EGTFTSDVSTLK([AEEA-AEEA-γGlu-C20 diacid])EEAATQRFLEHLV-NH2
modifications: also: K14 lipid also given as C18DA[γE][OEG][OEG]-
B19: SEQ ID NO: 98 (peptide)
peptide: H[Aib]EGTFTSDVSELKEEAAAQRFLEHLV-NH2
modifications: not fully specified (residue 14)
B20: SEQ ID NO: 94 (peptide)
peptide: H[Aib]EGTFTSDVSYLKE[Aib]AAQQRFLEHLV-NH2
modifications: not fully specified (residue 14)
B21: SEQ ID NO: 85 (peptide)
peptide: H[Aib]EGTFTSDVSRLK([AEEA-AEEA-γGlu-C20 diacid])ETAA[Aib]QRFLEHLV-NH2
B22: SEQ ID NO: 93 (peptide)
peptide: H[Aib]EGTFTSDVSTLK([AEEA-AEEA-γGlu-C20 diacid])ETAATQRFLEHLV-NH2
modifications: not fully specified
B23: SEQ ID NO: 88 (peptide)
peptide: H[Aib]EGTFTSDVSTLK([AEEA-AEEA-γGlu-C20 diacid])E[Aib]AAQQRFLEHLV-NH2
B24: SEQ ID NO: 9 (peptide)
peptide: H[Aib]EGTFTSDVSRLK([AEEA-AEEA-γGlu-C20 diacid])ELAAAQRFLEHLV-NH2
B25: SEQ ID NO: 84 (peptide)
peptide: H[Aib]EGTFTSDVSFLK([AEEA-AEEA-γGlu-C20 diacid])EFAAAQRFLEHLV-NH2
B26: SEQ ID NO: 103 (peptide)
peptide: H[Aib]EGTFTSD[Aib]SYLK([AEEA-AEEA-γGlu-C20 diacid])EEA[Aib]LQRFLEHLV-NH2
modifications: also: K14 lipid also given as C18DA[γE][OEG][OEG]-

Columns and labels:
[1] = target: human GLP-1 receptor (hGLP1R) (human, UniProt P43220 24-463); test: cell-based or functional assay
[2] = target: human secretin receptor (hSCTR) (human, UniProt P47872 23-440); test: cell-based or functional assay
Sequence of human secretin receptor (hSCTR) (P47872 23-440): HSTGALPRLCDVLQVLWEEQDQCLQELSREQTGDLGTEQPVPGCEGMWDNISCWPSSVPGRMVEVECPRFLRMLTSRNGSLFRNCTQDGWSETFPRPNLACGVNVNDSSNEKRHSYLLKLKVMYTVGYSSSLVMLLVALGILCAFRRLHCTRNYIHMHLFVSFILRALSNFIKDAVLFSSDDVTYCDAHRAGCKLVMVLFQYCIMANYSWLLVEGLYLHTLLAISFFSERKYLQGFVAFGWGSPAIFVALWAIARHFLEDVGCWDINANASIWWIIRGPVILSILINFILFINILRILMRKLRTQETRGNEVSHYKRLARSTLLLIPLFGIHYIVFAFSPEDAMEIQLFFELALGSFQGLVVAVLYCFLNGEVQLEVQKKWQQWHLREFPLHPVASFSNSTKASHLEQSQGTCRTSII

Row | Binder | pEC50 hGLPR1 [1] | pEC50 hSCTR [2]
1 | B1 | 10.8 -log M | 5.8 -log M
2 | B2 | 10.8 -log M | 6.1 -log M
3 | B3 | 10.5 -log M | 5.8 -log M
4 | B4 | 10.1 -log M | 5.8 -log M
5 | B5 | 10.9 -log M | 6.4 -log M
6 | B6 | 9.7 -log M | 6.3 -log M
7 | B7 | 10.7 -log M | 4.8 -log M
8 | B8 | 10.7 -log M | 5.7 -log M
9 | B9 | 10 -log M | 5.8 -log M
10 | B10 | 11 -log M | 5.8 -log M
11 | B11 | 9.9 -log M | 6.5 -log M
12 | B12 | 9.5 -log M | 4.5 -log M
13 | B13 | 10.4 -log M | 5.8 -log M
14 | B14 | 9.7 -log M | 6 -log M
15 | B15 | 9.7 -log M | 5.4 -log M
16 | B16 | 10.3 -log M | 6.2 -log M
17 | B17 | 9.9 -log M | 6.1 -log M
18 | B18 | 11 -log M | 7.1 -log M
19 | B19 | 10.6 -log M | 5.9 -log M
20 | B20 | 11 -log M | 6 -log M
21 | B21 | 9.9 -log M | 5.8 -log M
22 | B22 | 11 -log M | 6.5 -log M
23 | B23 | 11.4 -log M | 6.8 -log M
24 | B24 | 10.2 -log M | 6 -log M
25 | B25 | 10.1 -log M | 5.4 -log M
26 | B26 | 11.1 -log M | 5 -log M
